# T1: Aurora A_(D274N) kinase domain (human, UniProt O14965 122-403, D274N)
# T1 sequence: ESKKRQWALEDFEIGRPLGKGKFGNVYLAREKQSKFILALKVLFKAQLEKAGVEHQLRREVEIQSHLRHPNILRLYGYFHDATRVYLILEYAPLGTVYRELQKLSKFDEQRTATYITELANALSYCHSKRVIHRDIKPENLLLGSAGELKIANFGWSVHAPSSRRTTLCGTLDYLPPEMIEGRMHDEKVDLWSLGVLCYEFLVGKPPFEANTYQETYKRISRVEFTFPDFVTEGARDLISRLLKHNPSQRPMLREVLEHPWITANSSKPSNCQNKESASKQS
# B1: linear TPX2_((7–43)) peptide (peptide)
# peptide: LSYSYDAPSDFINFSSLDDEGDTQNIDSWFEEKANLENLKGGGCQM
# B2: Aurora A wild-type kinase domain (untagged) (domain or fragment)
# chain: FEIGRPLGKGKFGNVYLAREKQSKFILALKVLFKAQLEKAGVEHQLRREVEIQSHLRHPNILRLYGYFHDATRVYLILEYAPLGTVYRELQKLSKFDEQRTATYITELANALSYCHSKRVIHRDIKPENLLLGSAGELKIADFGWSVHAPSSRRTTLCGTLDYLPPEMIEGRMHDEKVDLWSLGVLCYEFLVGKPPFEANTYQETYKRISRVEFTFPDFVTEGARDLISRLLKHNPSQRPMLREVLEHPWI
# B3: synthetic linear CK2β_((186–200)) peptide (peptide)
# chain: RLYGFKIHPMAYQLQ
# B4: CK2α kinase (enzyme)
# chain: SGPVPSRARVYTDVNTHRPREYWDYESHVVEWGNQDDYQLVRKLGRGKYSEVFEAINITNNEKVVVKILKPVKKKKIKREIKILENLRGGPNIITLADIVKDPVSRTPALVFEHVNNTDFKQLYQTLTDYDIRFYMYEILKALDYCHSMGIMHRDVKPHNVMIDHEHRKLRLIDWGLAEFYHPGQEYNVRVASRYFKGPELLVDYQMYDYSLDMWSLGCMLASMIFRKEPFFHGHDNYDQLVRIAKVLGTEDLYDYIDKYNIELDPRFNDILGRHSRKRWERFVHSENQHLVSPEALDFLDKLLRYDHQSRLTAREAMEHPYFYTVVK
# How the values were obtained:
# Experiment in all cases: ITC
# [1] = target: T1, Aurora A_(D274N) kinase domain
# [2] = target: T2, cRAD-TPX2_((7–43)) display protein (Pyrococcus furiosus | human, UniProt O74036 108-287; O74036 302-349, K144A)
# [3] = target: T2, cRAD-TPX2_((7–43)) display protein; remark: listed apart in the source
# CK2α kinase = target: B4
# [4] = target: cRAD-CK2β_((186–200)) display protein (Pyrococcus furiosus | human, UniProt O74036 108-287; P67870 186-200; O74036 302-349, K144A)
binder,measurement,setting,value
B1,Ka,[1],8.71e+06 M⁻¹
B2,Kd,[2],15.9 nM
same,Ka,[3],6.27e+07 M⁻¹
B3,Ka,CK2α kinase,7.27e+06 M⁻¹
B4,Ka,[4],7.13e+06 M⁻¹

# — paper PMC5897841 (2017)
